Values joined by “and” are separate entries in the source; they are usually repeats but may differ in a detail not shown here. Equal entries are not always repeated.
Biological target: IgG-CD4 protein (fusion protein of human CD4 domains 1 and 2 with human IgG1 Fc at the C terminus) (human)
Experiment: BLI; Octet QKe; IgG-CD4 loaded onto protein G sensors at 20 ug/ml in ForteBio kinetics buffer; serial dilutions of gp120 (600 nM to 0.4 nM) in solution; Kd = koff/kon, 1:1 fitting model; two GMP lots of each gp120
Conditions: both partners purified

B1: GMP-grade gp120 protein, HIV-1 clade A isolate 92UG037.8 (natural protein)
chain: not shown
Q: For B1, which Kd is on record?
A: The Kd was 5.48 nM and 3.62 nM.

— PMC7081908, “Glycan Profiles of gp120 Protein Vaccines from Four Major HIV-1 Subtypes Produced from Different Host Cell Lines under Non-GMP or GMP Conditions” (Journal of Virology, 2020)
